Measurements reported in US20210253736A1 (published 2021).

What was measured:
[1] = target: T1, His-tagged human FAP (human, UniProt Q12884 26-760); experiment: Octet
[2] = target: T2, Cyno; experiment: Octet
T2 chain: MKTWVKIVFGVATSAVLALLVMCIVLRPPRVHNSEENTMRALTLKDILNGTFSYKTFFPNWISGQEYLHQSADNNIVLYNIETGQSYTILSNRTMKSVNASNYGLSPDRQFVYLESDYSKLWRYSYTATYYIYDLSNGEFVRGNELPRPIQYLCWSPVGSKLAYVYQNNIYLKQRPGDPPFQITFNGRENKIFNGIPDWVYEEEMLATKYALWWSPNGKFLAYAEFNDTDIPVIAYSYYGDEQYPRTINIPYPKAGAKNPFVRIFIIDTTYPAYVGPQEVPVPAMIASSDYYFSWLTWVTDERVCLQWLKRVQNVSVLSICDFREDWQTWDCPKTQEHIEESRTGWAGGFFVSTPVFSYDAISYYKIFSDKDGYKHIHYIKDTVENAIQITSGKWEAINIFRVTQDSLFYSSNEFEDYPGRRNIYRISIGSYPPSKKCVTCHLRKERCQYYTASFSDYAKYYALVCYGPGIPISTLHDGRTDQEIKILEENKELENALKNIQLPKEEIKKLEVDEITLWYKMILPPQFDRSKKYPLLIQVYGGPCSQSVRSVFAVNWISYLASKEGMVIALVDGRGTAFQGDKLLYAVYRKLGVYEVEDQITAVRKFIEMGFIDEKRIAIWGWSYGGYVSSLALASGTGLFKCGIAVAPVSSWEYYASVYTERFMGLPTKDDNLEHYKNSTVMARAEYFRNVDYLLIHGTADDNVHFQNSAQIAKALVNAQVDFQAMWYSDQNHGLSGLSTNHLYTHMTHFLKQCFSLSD

[3] = target: T3, His-tagged murine FAP (murine, UniProt P97321 26-761); experiment: Octet
T3 chain: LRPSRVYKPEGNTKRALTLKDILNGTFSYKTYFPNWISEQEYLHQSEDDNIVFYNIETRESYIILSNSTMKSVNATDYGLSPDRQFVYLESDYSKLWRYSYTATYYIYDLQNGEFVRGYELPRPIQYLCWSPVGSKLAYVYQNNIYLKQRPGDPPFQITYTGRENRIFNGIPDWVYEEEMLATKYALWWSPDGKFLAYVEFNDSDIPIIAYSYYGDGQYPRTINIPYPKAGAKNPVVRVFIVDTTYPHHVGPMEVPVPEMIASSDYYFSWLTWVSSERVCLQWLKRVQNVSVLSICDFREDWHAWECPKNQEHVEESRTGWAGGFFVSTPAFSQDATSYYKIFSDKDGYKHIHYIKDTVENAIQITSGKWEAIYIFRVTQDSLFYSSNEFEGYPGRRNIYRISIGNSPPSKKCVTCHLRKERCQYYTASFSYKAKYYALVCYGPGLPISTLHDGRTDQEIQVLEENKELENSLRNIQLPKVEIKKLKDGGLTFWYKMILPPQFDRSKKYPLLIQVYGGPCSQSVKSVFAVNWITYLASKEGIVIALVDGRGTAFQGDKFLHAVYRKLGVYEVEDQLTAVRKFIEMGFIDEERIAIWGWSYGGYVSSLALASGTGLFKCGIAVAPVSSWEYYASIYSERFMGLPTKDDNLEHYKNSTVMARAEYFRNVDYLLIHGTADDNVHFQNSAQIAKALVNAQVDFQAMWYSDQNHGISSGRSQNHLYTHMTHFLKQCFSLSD

[4] = target: T1, His-tagged human FAP; experiment: Octet; apparent KD
[5] = target: T4, Cyno FAP; experiment: Octet; apparent KD
T4 chain: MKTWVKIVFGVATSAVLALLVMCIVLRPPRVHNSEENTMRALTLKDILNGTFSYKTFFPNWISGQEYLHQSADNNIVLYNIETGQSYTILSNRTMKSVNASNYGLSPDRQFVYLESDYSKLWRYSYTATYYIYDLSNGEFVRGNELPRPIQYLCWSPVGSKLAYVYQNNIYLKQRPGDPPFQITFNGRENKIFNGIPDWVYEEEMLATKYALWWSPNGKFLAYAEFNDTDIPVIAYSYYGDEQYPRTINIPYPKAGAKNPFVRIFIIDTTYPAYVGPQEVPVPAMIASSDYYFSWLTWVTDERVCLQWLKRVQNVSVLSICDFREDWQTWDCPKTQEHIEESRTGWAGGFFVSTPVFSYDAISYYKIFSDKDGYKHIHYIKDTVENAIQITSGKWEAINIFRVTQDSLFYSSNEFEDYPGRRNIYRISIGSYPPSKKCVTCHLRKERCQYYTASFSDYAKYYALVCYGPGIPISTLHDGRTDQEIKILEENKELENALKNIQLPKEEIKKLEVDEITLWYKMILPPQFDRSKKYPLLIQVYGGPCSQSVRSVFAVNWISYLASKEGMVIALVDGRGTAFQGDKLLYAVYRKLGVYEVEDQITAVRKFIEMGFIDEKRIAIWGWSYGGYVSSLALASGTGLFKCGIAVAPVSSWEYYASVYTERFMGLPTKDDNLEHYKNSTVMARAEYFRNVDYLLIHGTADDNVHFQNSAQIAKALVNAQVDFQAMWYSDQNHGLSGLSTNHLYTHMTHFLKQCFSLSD

Row | Binder | Kd [1] | Kd [2] | Kd [3] | Kd [4] | Kd [5]
1 | XENP24448 (1C3A5) (antibody, V domains shown) VH: EVQLLESGGGLVQPGGSLRLSCAASGFTFSSYAMSWVRQAPGKGLEWVSAISGSGGGTRYADSVKGRFTISRDNSKNTLYLQMNSLRAEDTAVYYCAKHSSGFHWYFDYWGQGTLVTVSS VL: not shown | 4.54 nM | 5.01 nM | – | – | –
2 | XENP23534 (sibrotuzumab) (antibody, V domains shown) VH: QVQLVQSGAEVKKPGASVKVSCKTSRYTFTEYTIHWVRQAPGQRLEWIGGINPNNGIPNYNQKFKGRVTITVDTSASTAYMELSSLRSEDTAVYYCARRRIAYGYDEGHAMDYWGQGTLVTVSS VL: DIVMTQSPDSLAVSLGERATINCKSSQSLLYSRNQKNYLAWYQQKPGQPPKLLIFWASTRESGVPDRFSGSGFGTDFTLTISSLQAEDVAVYYCQQYFSYPLTFGQGTKVEIKR | < 0.001 nM | < 0.001 nM | – | – | –
3 | XENP24466 (1F12B5) (antibody, V domains shown) VH: EVQLLESGGGLVQPGGSLRLSCAASGFTFSSYAMTWVRQAPGKGLEWVSTISSSGGTTYYADSVKGRFTISRDNSKNTLYLQMNSLRAEDTAVYYCAKYPSYYSVTGFDYWGQGTLVTVSS VL: not shown | < 0.001 nM | < 0.001 nM | – | – | –
4 | XENP24463 (1F11B5) (antibody, V domains shown) VH: EVQLLESGGGLVQPGGSLRLSCAASGFTFSSYAMNWVRQAPGKGLEWVSGISGGGSSTTYYADSVKGRFTISRDNSKNTLYLQMNSLRAEDTAVYYCAKPYYWVDSFFDYWGQGTLVTVSS VL: not shown | < 0.001 nM | 0.0224 nM | 45.5 nM | – | –
5 | XENP23936 (3F2, central-scFv) (antibody) chain 1: not shown chain 2: not shown chain 3: EIVLTQSPGTLSLSPGERATLSCRASQSVTSSYLAWYQQKPGQAPRLLINVGSRRATGIPDRFSGSGSGTDFTLTISRLEPEDFAVYYCQQGIMLPPTFGQGTKVEIKRTVAAPSVFIFPPSDEQLKSGTASVVCLLNNFYPREAKVQWKVDNALQSGNSQESVTEQDSKDSTYSLSSTLTLSKADYEKHKVYACEVTHQGLSSPVTKSFNRGEC | – | – | – | 0.323 nM | 0.187 nM
6 | XENP24461 (1A7B5) (antibody, V domains shown) VH: EVQLLESGGGLVQPGGSLRLSCAASGFTFSSYAMSWVRQAPGKGLEWVSGISGGGGSTYYADSVKGRFTISRDNSKNTLYLQMNSLRAEDTAVYYCAKIAHSRIGWHFDYWGQGTLVTVSS VL: not shown | 1.02 nM | 1.11 nM | – | – | –
7 | XENP24460 (1A1B5) (antibody, V domains shown) VH: EVQLLESGGGLVQPGGSLRLSCAASGFTFSSYAMNWVRQAPGKGLEWVSTISSSGSRTYYADSVKGRFTISRDNSKNTLYLQMNSLRAEDTAVYYCAKGLVASAPFDYWGQGTLVTVSS VL: not shown | 0.515 nM | 0.458 nM | – | – | –
8 | XENP24462 (1F4B5) (antibody, V domains shown) VH: EVQLLESGGGLVQPGGSLRLSCAASGFTFSRYAMTWVRQAPGKGLEWVSSISASGGSTYYADSVKGRFTISRDNSKNTLYLQMNSLRAEDTAVYYCAKTFSGYAHYDFDYWGQGTLVTVSS VL: not shown | 0.372 nM | 0.53 nM | 33 nM | – | –
9 | XENP24471 (1F10B5) (antibody, V domains shown) VH: EVQLLESGGGLVQPGGSLRLSCAASGFTFSSYGMSWVRQAPGKGLEWVSGISGSGSSTHYADSVKGRFTISRDNSKNTLYLQMNSLRAEDTAVYYCAKGTTGLSYFDYWGQGTLVTVSS VL: not shown | 9.13 nM | 6.93 nM | 4.52 nM | – | –
